Test results published in PMC5581195, “The activation of OsEIL1 on YUC8 transcription and auxin biosynthesis is required for ethylene-inhibited root elongation in rice early seedling development”.

Target: T1, GST-EIL1-N (OsEIL1 N-terminal region) (Oryza sativa (rice), UniProt Q10M41 1-350)
T1 sequence: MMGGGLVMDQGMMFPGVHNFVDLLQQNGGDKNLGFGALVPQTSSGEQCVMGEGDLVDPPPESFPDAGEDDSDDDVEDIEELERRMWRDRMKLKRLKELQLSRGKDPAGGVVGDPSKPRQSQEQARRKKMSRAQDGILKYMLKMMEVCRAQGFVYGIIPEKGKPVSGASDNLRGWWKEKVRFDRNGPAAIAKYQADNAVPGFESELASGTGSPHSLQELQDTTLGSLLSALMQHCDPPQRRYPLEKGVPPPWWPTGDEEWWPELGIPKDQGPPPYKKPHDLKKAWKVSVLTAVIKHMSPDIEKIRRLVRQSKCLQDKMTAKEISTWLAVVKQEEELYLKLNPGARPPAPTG
Assay: EMSA; specificity shown by excess unlabeled probe competition; LightShift Chemiluminescent EMSA kit, manufacturer's protocol; 20 min at room temperature; 5% native polyacrylamide gel; buffer, salt and pH not stated
Settings: protein: recombinant; tags: N-terminal GST (pGEX-6p-1); label: biotin 3' end; blunt

B1: YUC8/REIN7 promoter EBS probe (P1 fragment region) (dsDNA)
DNA 1: CCAAAATTTTTAATGTAAAATTTTAAGTACATTTTTTTCATGTACTAGCTACCTCC
DNA 2: GGAGGTAGCTAGTACATGAAAAAAATGTACTTAAAATTTTACATTAAAAATTTTGG
- binding result: binds
